The values that follow come from PMC10047360.

B1: LRP6: hB3GnT2 co-expression (protein)
parent chain: MGAVLRSLLACSFCVLLRAAPLLLYANRRDLRLVDATNGKENATIVVGGLEDAAAVDFVFSHGLIYWSDVSEEAIKRTEFNKTESVQNVVVSGLLSPDGLACDWLGEKLYWTDSETNRIEVSNLDGSLRKVLFWQELDQPRAIALDPSSGFMYWTDWGEVPKIERAGMDGSSRFIIINSEIYWPNGLTLDYEEQKLYWADAKLNFIHKSNLDGTNRQAVVKGSLPHPFALTLFEDILYWTDWSTHSILACNKYTGEGLREIHSDIFSPMDIHAFSQQRQPNATNPCGIDNGGCSHLCLMSPVKPFYQCACPTGVKLLENGKTCKDGATELLLLARRTDLRRISLDTPDFTDIVLQLEDIRHAIAIDYDPVEGYIYWTDDEVRAIRRSFIDGSGSQFVVTAQIAHPDGIAVDWVARNLYWTDTGTDRIEVTRLNGTMRKILISEDLEEPRAIVLDPMVGYMYWTDWGEIPKIERAALDGSDRVVLVNTSLGWPNGLALDYDEGKIYWGDAKTDKIEVMNTDGTGRRVLVEDKIPHIFGFTLLGDYVYWTDWQRRSIERVHKRSAEREVIIDQLPDLMGLKATNVHRVIGSNPCAEENGGCSHLCLYRPQGLRCACPIGFELISDMKTCIVPEAFLLFSRRADIRRISLETNNNNVAIPLTGVKEASALDFDVTDNRIYWTDISLKTISRAFMNGSALEHVVEFGLDYPEGMAVDWLGKNLYWADTGTNRIEVSKLDGQHRQVLVWKDLDSPRALALDPAEGFMYWTEWGGKPKIDRAAMDGSERTTLVPNVGRANGLTIDYAKRRLYWTDLDTNLIESSNMLGLNREVIADDLPHPFGLTQYQDYIYWTDWSRRSIERANKTSGQNRTIIQGHLDYVMDILVFHSSRQSGWNECASSNGHCSHLCLAVPVGGFVCGCPAHYSLNADNRTCSAPTTFLLFSQKSAINRMVIDEQQSPDIILPIHSLRNVRAIDYDPLDKQLYWIDSRQNMIRKAQEDGSQGFTVVVSSVPSQNLEIQPYDLSIDIYSRYIYWTCEATNVINVTRLDGRSVGVVLKGEQDRPRAVVVNPEKGYMYFTNLQERSPKIERAALDGTEREVLFFSGLSKPIALALDSRLGKLFWADSDLRRIESSDLSGANRIVLEDSNILQPVGLTVFENWLYWIDKQQQMIEKIDMTGREGRTKVQARIAQLSDIHAVKELNLQEYRQHPCAQDNGGCSHICLVKGDGTTRCSCPMHLVLLQDELSCGEPPTCSPQQFTCFTGEIDCIPVAWRCDGFTECEDHSDELNCPVCSESQFQCASGQCIDGALRCNGDANCQDKSDEKNCEVLCLIDQFRCANGQCIGKHKKCDHNVDCSDKSDELDCYPTEEPAPQATNTVGSVIGVIVTIFVSGTVYFICQRMLCPRMKGDGETMTNDYVVHGPASVPLGYVPHPSSLSGSLPGMSRGKSMISSLSIMGGSSGPPYDRAHVTGASSSSSSSTKGTYFPAILNPPPSPATERSHYTMEFGYSSNSPSTHRSYSYRPYSYRHFAPPTTPCSTDVCDSDYAPSRRMTSVATAKGYTSDLNYDSEPVPPPPTPRSQYLSAEENYESCPPSPYTERSYSHHLYPPPPSPCTDSS
B2: LRP6: N1039Q (protein)
parent chain: B1 parent chain
B3: LRP6: N692Q (protein)
parent chain: B1 parent chain
B4: LRP6: N81Q (protein)
parent chain: B1 parent chain
B5: LRP6: N859Q (protein)
parent chain: B1 parent chain
B6: LRP6: N865Q (protein)
parent chain: B1 parent chain
B7: LRP6: N281Q (protein)
parent chain: B1 parent chain
B8: LRP6: N926Q (protein)
parent chain: B1 parent chain
B9: LRP6: N486Q (protein)
parent chain: B1 parent chain
B10: LRP6: N433Q (protein)
parent chain: B1 parent chain
B11: LRP6: N42Q (protein)
parent chain: B1 parent chain
B12: LRP6: B3GnT2−/− (protein)
parent chain: B1 parent chain

A short description of the first data set: cell-surface HiBiT/LgBiT luminescence to mCherry ratio. To be noted: glycan changed form; control: HiBiT-LRP6-mCherry alone. (HiBiT is a short tag that completes a luciferase, so light tracks the accessible tagged protein.)
In the case of B1, the “localisation_or_trafficking, fold_change” value is recorded as “increases”.

The next data set in a line: Western blot, mature upper band, B3GnT2-/- HEK293T. To be noted: glycan lost; control: wild-type LRP6. (In general: In western blotting, separated proteins are transferred to a membrane and probed.)
Take B2: the localisation_or_trafficking entry is listed as “no change”. The same measure, in the same setting: the value for B3 was “abolishes”; that for B4 was “abolishes”; that for B5 was “no change”.

In the case of B6, the localisation_or_trafficking result is on record as “no change”. On the same count and under the same terms, the value for B7 was “no change”. Turning to B8, the localisation_or_trafficking result was “no change”. For B9, the localisation_or_trafficking entry is on record as “no change”.

With B10, the localisation_or_trafficking entry is reported as “no change”.

On to B11, for which the localisation_or_trafficking result is on record as “no change”.

Another data set is described as follows: Western blot of overexpressed LRP6. Conditions: glycan changed form; control: wild-type HEK293T cells.
Regarding B12, the expression_or_secretion result is “increases”.
